Reference: patent US20230365685A1
Blank lines part the entries; values can stand above or below the binder they belong to.

Tests used:
[1] = target: biotinylated human TIM-3 (human) (UniProt Q8TDQ0); assay: competition ELISA: antibody coated, biotinylated human TIM-3 preincubated with competitor MBG453
[2] = target: biotinylated human TIM-3 (human) (UniProt Q8TDQ0); assay: competition ELISA: antibody coated, biotinylated human TIM-3 preincubated with competitor TSR022
[3] = target: biotinylated human TIM-3 (human) (UniProt Q8TDQ0); assay: competition ELISA: antibody coated, biotinylated human TIM-3 preincubated with competitor 16H1
[4] = target: biotinylated human TIM-3 (human) (UniProt Q8TDQ0); assay: competition ELISA: antibody coated, biotinylated human TIM-3 preincubated with competitor 19D11
[5] = target: biotinylated human TIM-3 (human) (UniProt Q8TDQ0); assay: competition ELISA: antibody coated, biotinylated human TIM-3 preincubated with competitor CH 10#
[6] = target: biotinylated human TIM-3 (human) (UniProt Q8TDQ0); assay: competition ELISA: antibody coated, biotinylated human TIM-3 preincubated with competitor 4H2
[7] = target: biotinylated human TIM-3 (human) (UniProt Q8TDQ0); assay: competition ELISA: antibody coated, biotinylated human TIM-3 preincubated with competitor 3E6
[8] = target: biotinylated human TIM-3 (human) (UniProt Q8TDQ0); assay: competition ELISA: antibody coated, biotinylated human TIM-3 preincubated with competitor CH 11#

inhibit percentage [1]: 100%
inhibit percentage [2]: 94.8%
inhibit percentage [3]: 99.2%
inhibit percentage [4]: 4.39%
inhibit percentage [5]: 15.8%
inhibit percentage [6]: 95.9%
inhibit percentage [7]: 94.3%
inhibit percentage [8]: 8.29%
B1: MBG453 (antibody, INN chains, looked up, V domains shown)
VH: QVQLVQSGAEVKKPGSSVKVSCKASGYTFTSYNMHWVRQAPGQGLEWMGDIYPGNGDTSYNQKFKGRVTITADKSTSTVYMELSSLRSEDTAVYYCARVGGAFPMDYWGQGTTVTVSS
VL: AIQLTQSPSSLSASVGDRVTITCRASESVEYYGTSLMQWYQQKPGKAPKLLIYAASNVESGVPSRFSGSGSGTDFTLTISSLQPEDFATYFCQQSRKDPSTFGGGTKVEIKR

inhibit percentage [1]: 99.1%
inhibit percentage [2]: 100%
inhibit percentage [3]: 70.2%
inhibit percentage [4]: 0%
inhibit percentage [5]: 40.5%
inhibit percentage [6]: 98.1%
inhibit percentage [7]: 95.8%
inhibit percentage [8]: 0%
B2: TSR022 (antibody, INN chains, looked up, V domains shown)
VH: EVQLLESGGGLVQPGGSLRLSCAAASGFTFSSYDMSWVRQAPGKGLDWVSTISGGGTYTYYQDSVKGRFTISRDNSKNTLYLQMNSLRAEDTAVYYCASMDYWGQGTTVTVSS
VL: DIQMTQSPSSLSASVGDRVTITCRASQSIRRYLNWYHQKPGKAPKLLIYGASTLQSGVPSRFSGSGSGTDFTLTISSLQPEDFAVYYCQQSHSAPLTFGGGTKVEIK
